Source: patent US8158376B2, “Bisubstrate fluorescent probe binding to protein kinases” (University of Tartu, priority 2006, dated 2012)
Where two headings read alike, the source gives them in different places.

Tests used:
Experiment in all cases: Kinase selectivity panel
Type in all cases: biochemical
CSK = CSK (Homo sapiens, UniProt P41240); conditions: read-out: residual activity (%) CSK
Method: (§1) The panel of kinases included all 52 kinases available for testing.
(§2) The assay of protein kinases was performed at 30° C. as described previously [Davies et al., Biochem. J. 351 (2000) 95; Murray et al., Biochem. J. 384 (2004) 477].

ERK8 = target: T1, ERK8 (Homo sapiens, UniProt Q8TD08); conditions: read-out: residual activity (%) ERK8
T1 sequence (Q8TD08 1-544): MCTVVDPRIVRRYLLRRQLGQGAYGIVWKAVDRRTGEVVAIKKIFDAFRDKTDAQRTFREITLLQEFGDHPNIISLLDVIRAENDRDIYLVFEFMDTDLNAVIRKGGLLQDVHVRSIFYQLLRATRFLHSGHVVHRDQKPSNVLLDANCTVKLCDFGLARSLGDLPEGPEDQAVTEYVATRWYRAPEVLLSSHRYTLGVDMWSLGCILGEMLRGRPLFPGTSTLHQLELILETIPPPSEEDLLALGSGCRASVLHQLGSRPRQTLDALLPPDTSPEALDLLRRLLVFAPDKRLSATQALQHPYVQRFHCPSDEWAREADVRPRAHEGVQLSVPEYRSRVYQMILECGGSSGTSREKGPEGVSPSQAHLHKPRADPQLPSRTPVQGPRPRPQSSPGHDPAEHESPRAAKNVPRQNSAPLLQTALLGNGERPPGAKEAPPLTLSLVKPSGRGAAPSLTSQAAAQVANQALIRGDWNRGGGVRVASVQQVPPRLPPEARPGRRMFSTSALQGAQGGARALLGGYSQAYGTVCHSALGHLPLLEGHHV
Method: as §1, §2

MKK1 = MKK1 (Homo sapiens, UniProt Q02750); conditions: read-out: residual activity (%) MKK1
Method: as §1, §2

MST2 = target: T2, MST2 (Homo sapiens, UniProt Q13188); conditions: read-out: residual activity (%) MST2
T2 sequence (Q13188 1-491): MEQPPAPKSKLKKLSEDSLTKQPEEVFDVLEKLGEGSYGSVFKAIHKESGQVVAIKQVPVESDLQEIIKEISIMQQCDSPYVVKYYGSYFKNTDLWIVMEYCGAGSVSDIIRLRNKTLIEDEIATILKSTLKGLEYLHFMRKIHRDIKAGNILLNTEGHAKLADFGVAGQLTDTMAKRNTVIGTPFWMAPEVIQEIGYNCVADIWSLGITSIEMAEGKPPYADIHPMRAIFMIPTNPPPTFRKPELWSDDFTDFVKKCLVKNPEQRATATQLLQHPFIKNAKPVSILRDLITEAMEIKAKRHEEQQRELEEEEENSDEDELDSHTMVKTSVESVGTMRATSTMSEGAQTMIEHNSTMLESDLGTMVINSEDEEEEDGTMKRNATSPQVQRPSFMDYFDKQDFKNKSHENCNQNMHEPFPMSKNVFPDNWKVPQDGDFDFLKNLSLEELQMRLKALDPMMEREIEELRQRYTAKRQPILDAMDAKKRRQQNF
Method: as §1, §2

PDK1 = target: T3, PDK1 (Homo sapiens, UniProt O15530); conditions: read-out: residual activity (%) PDK1
T3 sequence (O15530 1-556): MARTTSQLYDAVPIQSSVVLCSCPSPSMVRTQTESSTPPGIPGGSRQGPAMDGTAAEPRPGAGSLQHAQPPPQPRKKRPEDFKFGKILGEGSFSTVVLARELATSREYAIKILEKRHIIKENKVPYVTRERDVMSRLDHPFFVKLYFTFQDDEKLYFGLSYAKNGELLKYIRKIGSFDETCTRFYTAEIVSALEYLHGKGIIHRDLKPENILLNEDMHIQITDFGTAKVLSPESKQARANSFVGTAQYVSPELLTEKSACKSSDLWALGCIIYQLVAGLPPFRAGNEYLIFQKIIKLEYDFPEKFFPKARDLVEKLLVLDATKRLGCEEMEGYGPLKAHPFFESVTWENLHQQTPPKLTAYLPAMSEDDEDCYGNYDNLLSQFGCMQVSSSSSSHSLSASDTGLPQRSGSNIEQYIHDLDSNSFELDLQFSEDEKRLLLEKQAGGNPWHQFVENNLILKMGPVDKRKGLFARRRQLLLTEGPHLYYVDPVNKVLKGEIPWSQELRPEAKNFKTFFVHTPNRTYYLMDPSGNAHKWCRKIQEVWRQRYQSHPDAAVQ
Method: as §1, §2

PLK1 = PLK1 (Homo sapiens, UniProt P53350); conditions: read-out: residual activity (%) PLK1
Method: as §1, §2

SGK = target: T4, SGK (Homo sapiens, UniProt O00141); conditions: read-out: residual activity (%) SGK
T4 sequence (O00141 1-431): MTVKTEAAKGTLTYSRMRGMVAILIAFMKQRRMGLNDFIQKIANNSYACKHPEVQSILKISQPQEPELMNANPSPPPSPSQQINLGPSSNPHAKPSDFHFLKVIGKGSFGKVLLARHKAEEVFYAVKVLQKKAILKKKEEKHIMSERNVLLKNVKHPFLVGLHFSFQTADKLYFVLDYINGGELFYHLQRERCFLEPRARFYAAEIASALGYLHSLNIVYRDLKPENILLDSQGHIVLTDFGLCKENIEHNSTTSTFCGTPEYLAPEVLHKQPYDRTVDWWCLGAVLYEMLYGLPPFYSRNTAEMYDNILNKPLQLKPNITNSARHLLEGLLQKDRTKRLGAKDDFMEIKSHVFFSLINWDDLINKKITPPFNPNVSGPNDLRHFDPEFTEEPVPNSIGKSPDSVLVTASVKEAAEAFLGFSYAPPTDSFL
Method: as §1, §2

CSK, sequence (P41240 whole entry, species assumed): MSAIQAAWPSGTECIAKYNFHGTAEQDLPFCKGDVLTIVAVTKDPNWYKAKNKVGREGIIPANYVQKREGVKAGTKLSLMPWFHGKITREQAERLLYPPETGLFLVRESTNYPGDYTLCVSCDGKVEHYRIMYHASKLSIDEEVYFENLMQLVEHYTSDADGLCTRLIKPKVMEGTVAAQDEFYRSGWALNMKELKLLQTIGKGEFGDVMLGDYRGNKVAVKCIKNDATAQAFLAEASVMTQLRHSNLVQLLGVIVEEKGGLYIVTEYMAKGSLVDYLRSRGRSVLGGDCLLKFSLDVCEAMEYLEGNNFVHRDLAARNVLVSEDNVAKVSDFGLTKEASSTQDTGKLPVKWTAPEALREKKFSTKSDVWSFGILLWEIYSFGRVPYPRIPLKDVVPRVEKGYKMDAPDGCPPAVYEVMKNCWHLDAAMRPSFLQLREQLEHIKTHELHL
PLK1, sequence (P53350 whole entry, species assumed): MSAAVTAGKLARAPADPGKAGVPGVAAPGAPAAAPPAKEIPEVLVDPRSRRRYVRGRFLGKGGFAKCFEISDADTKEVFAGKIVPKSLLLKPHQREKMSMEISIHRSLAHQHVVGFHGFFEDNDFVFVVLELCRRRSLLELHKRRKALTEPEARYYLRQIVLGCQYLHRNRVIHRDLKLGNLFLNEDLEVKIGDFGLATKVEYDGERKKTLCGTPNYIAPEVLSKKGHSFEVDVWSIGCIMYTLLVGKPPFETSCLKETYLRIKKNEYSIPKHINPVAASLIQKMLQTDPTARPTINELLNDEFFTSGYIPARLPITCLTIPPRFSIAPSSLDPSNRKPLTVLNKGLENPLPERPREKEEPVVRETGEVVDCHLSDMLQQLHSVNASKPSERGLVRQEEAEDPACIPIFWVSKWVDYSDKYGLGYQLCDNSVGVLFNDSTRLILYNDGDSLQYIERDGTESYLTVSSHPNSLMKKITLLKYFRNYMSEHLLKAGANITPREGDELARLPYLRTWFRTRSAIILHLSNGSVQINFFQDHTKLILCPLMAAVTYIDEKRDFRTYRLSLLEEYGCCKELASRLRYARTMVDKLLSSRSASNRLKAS
MKK1, sequence (Q02750 whole entry, species assumed): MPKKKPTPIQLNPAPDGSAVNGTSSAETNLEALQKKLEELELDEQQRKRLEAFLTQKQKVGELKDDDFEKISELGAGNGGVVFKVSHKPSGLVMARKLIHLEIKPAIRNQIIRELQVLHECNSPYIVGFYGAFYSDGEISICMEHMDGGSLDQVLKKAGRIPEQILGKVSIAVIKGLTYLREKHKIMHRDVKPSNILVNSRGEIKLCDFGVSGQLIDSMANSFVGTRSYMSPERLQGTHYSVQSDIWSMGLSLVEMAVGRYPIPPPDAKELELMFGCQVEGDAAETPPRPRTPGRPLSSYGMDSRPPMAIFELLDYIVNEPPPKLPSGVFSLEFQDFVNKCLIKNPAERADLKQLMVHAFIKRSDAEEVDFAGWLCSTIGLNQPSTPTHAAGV

SMILES | remaining activity at 1 µM (CSK) | remaining activity at 1 µM (ERK8) | remaining activity at 1 µM (MKK1) | remaining activity at 1 µM (MST2) | remaining activity at 1 µM (PDK1) | remaining activity at 1 µM (PLK1) | remaining activity at 1 µM (SGK) | remaining activity at 1 µM (CSK; inhibitor 1 μM, ATP 20 μM) | remaining activity at 1 µM (ERK8; inhibitor 1 μM, ATP 5 μM) | remaining activity at 1 µM (MKK1; inhibitor 1 μM, ATP 5 μM) | remaining activity at 1 µM (MST2; inhibitor 1 μM, ATP 20 μM) | remaining activity at 1 µM (PDK1; inhibitor 1 μM, ATP 20 μM) | remaining activity at 1 µM (PLK1; inhibitor 1 μM, ATP 5 μM) | remaining activity at 1 µM (SGK; inhibitor 1 μM, ATP 20 μM)
N=C(N)NCCC[C@@H](NC(=O)[C@@H](CCCNC(=N)N)NC(=O)[C@@H](CCCNC(=N)N)NC(=O)[C@@H](CCCNC(=N)N)NC(=O)[C@@H](CCCNC(=N)N)NC(=O)[C@@H](CCCNC(=N)N)NC(=O)CCCCCNC(=O)[C@H]1O[C@@H](n2cnc3c(N)ncnc32)[C@H](O)[C@@H]1O)C(N)=O [Compound 5, AdcAhx(D-Arg)6-NH2] | 48% | 50% | 77% | 77% | 62% | 81% | 16% |  |  |  |  |  |  | 
N=C(N)NCCC[C@@H](NC(=O)[C@@H](CCCNC(=N)N)NC(=O)[C@@H](CCCNC(=N)N)NC(=O)[C@@H](CCCNC(=N)N)NC(=O)[C@@H](CCCNC(=N)N)NC(=O)[C@@H](CCCNC(=N)N)NC(=O)CCCCCNCCNS(=O)(=O)c1cccc2cnccc12)C(N)=O [Compound 26, H9-Hex(D-Arg)6-NH2] |  |  |  |  |  |  |  | 70% | 52% | 84% | 24% | 56% | 76% | 1%
